# Test results: article PMC10628450 (Frontiers in Immunology, 2023)
# B1: Anti-NKp46 IgG (antibody, V domains shown)
# VH: QVQLVQSGAEVKKPGSSVKVSCKASGYTFSDYVINWVRQAPGQGLEWMGEIYPGSGTNYYNEKFKAKATITADKSTSTAYMELSSLRSEDTAVYYCARRGRYGLYAMDYWGQGTTVTVSS
# VL: DIQMTQSPSSLSASVGDRVTITCRASQDISNYLNWYQQKPGKAPKLLIYYTSRLHSGVPSRFSGSGSGTDFTFTISSLQPEDIATYFCQQGNTRPWTFGGGTKVEIK
# notes: human IgG1 heavy chain constant region (CH1, hinge, CH2, CH3); numbers count on: EU numbering; IgG1 with LALA; also called parental monospecific anti-NKp46 antibody; anti-NKp46 LALA IgG; source: Expi293 cells, transiently transfected, purified (MabSelect); copies: 2 + 2
# B2: Anti-NKp46_EF_F06 (bispecific antibody, V domains shown)
# VH: B1 VH
# VL: B1 VL
# notes: human IgG1 heavy chain constant region from its start to the KLTV motif before the EF loop of CH3; numbers count on: EU numbering; Gly4Ser linker; anti-EGFR bovine knob F06 (from an ultralong CDR-H3); human IgG1 heavy chain constant region from the RWQQ motif after the EF loop of CH3 to its end; as the light chain of m1; IgG1 with LALA; DKS of the EF loop replaced by G4S-knob-G4S (results); …
# B3: Anti-NKp46_EF_H05 (bispecific antibody, V domains shown)
# VH: B1 VH
# VL: B1 VL
# notes: human IgG1 heavy chain constant region from its start to the KLTV motif before the EF loop of CH3; numbers count on: EU numbering; Gly4Ser linker; anti-EGFR bovine knob H05 (from an ultralong CDR-H3); human IgG1 heavy chain constant region from the RWQQ motif after the EF loop of CH3 to its end; as the light chain of m1; IgG1 with LALA; DKS of the EF loop replaced by G4S-knob-G4S (results); …
# B4: Anti-NKp46_AB_H05 (bispecific antibody, V domains shown)
# VH: B1 VH
# VL: B1 VL
# notes: human IgG1 heavy chain constant region from its start to the PPSR motif before the AB loop of CH3; numbers count on: EU numbering; Gly4Ser linker; anti-EGFR bovine knob H05 (from an ultralong CDR-H3); human IgG1 heavy chain constant region from the motif after the AB loop of CH3 (printed as NGVS) to its end; as the light chain of m1; IgG1 with LALA; EEMTK of the AB loop replaced by G4S-knob-G4S; …
# B5: Anti-NKp46_AB_F06 (bispecific antibody, V domains shown)
# VH: B1 VH
# VL: B1 VL
# notes: human IgG1 heavy chain constant region from its start to the PPSR motif before the AB loop of CH3; numbers count on: EU numbering; Gly4Ser linker; anti-EGFR bovine knob F06 (from an ultralong CDR-H3); human IgG1 heavy chain constant region from the motif after the AB loop of CH3 (printed as NGVS) to its end; as the light chain of m1; IgG1 with LALA; EEMTK of the AB loop replaced by G4S-knob-G4S; …
# Target: T1, NKp46-His6 (Homo sapiens, UniProt O76036)
# T1 construct: recombinant human NKp46 (natural cytotoxicity receptor); soluble recombinant receptor; probably the extracellular domain; also called (rh) NKp46; recombinant NKp46-His6; source: bought: AcroBiosystems
# Experiment: BLI; antibodies loaded at 5 µg/ml on anti-human-Fc (AHC) or anti-human-CH1 (FAB2G) biosensors; antigen in solution (EGFR 3.125-200 nM; NKp46 and NKp30 1.6-100 nM) in kinetics buffer (PBS, 0.1% Tween-20, 1% BSA); 25°C; 1:1 binding model
# Conditions: both partners purified
# T1 sequence (O76036 22-258): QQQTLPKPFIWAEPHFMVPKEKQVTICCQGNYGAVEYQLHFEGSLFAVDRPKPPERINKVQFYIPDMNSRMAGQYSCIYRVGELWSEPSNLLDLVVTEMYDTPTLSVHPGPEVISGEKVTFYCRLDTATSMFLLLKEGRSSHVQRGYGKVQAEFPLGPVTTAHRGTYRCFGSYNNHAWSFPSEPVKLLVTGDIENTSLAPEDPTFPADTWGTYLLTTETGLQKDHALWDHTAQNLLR
row,Kd,Binder
1,1 nM,B1
2,3 nM,B2
3,3.6 nM,B3
4,3.4 nM,B4
5,2 nM,B5
